Experimental data: paper PMC7948503, “Optimization of a peptide ligand for the adhesion GPCR ADGRG2 provides a potent tool to explore receptor biology” (The Journal of Biological Chemistry, 2020)
Non-standard residues stand in square brackets, D forms with d. Primed or numbered codes have the meaning given here. No end group written: not given here. Phe(4-Me) = Cc1ccc(C[C@H](N)C(=O)O)cc1; FITC′ = not defined here

Legend:
Test in all cases: FRET or BRET; HEK293 cells transfected with Rluc-ADGRG2-ΔGPS-β WT or mutants, stimulated by increasing concentrations of FITC-conjugated VPM-p15; saturation curves fitted with GraphPad; each experiment repeated 6 times
Conditions in all cases: one partner purified
Rluc-ADGRG2-ΔGPS-β N667A = molecular target: T1, Rluc-ADGRG2-ΔGPS-β N667A (mouse, UniProt Q8CJ12-3 38-995, N667A)
T1 construct: ADGRG2 (GPR64), mouse, ADGRG2-ΔGPS-β: the entire ECD removed; source: HEK293, transfected, on cells; not shown: Rluc, N-terminal, kept
T1 sequence (Q8CJ12 other isoform, or with tags, fused parts or gaps N667A | N667A | N667A N667A): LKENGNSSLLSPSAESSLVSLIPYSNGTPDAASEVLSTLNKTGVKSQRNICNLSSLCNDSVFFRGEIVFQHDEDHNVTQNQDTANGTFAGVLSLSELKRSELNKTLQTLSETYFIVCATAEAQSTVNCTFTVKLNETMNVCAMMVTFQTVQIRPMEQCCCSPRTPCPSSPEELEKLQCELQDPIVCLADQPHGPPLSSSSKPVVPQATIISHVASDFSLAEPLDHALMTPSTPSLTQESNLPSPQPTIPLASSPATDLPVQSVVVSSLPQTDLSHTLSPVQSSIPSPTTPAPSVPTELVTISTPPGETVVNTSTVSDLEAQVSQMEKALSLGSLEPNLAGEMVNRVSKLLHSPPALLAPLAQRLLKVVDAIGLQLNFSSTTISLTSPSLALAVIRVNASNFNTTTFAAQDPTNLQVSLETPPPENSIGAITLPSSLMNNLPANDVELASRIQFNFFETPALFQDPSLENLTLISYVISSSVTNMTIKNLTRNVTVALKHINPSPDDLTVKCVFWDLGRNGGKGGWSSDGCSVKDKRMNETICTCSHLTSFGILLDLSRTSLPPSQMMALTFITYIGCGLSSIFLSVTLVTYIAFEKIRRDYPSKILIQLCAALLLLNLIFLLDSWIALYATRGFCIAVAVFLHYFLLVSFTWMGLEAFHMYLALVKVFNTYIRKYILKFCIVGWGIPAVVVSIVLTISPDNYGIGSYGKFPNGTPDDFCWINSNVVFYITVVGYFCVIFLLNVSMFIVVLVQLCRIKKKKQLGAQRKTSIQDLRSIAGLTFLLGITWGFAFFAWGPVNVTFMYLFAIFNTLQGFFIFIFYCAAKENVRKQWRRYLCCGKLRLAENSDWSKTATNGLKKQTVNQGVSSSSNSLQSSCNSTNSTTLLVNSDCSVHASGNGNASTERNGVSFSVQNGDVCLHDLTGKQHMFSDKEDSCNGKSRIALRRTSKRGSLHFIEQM

Rluc-ADGRG2-ΔGPS-β F671A = molecular target: T2, Rluc-ADGRG2-ΔGPS-β F671A (mouse, UniProt Q8CJ12-3 38-995, F671A)
T2 construct: ADGRG2 (GPR64), mouse, ADGRG2-ΔGPS-β: the entire ECD removed; source: HEK293, transfected, on cells; not shown: Rluc, N-terminal, kept
T2 sequence (Q8CJ12 other isoform, or with tags, fused parts or gaps F671A | F671A | F671A F671A): as the sequence (Q8CJ12 other isoform, or with tags, fused parts or gaps N667A | N667A | N667A N667A) above, with A630N, F634A counted along it

Rluc-ADGRG2-ΔGPS-β L679A = molecular target: T3, Rluc-ADGRG2-ΔGPS-β L679A (mouse, UniProt Q8CJ12-3 38-995, L679A)
T3 construct: ADGRG2 (GPR64), mouse, ADGRG2-ΔGPS-β: the entire ECD removed; source: HEK293, transfected, on cells; not shown: Rluc, N-terminal, kept
T3 sequence (Q8CJ12 other isoform, or with tags, fused parts or gaps L679A | L679A | L679A L679A): as the sequence (Q8CJ12 other isoform, or with tags, fused parts or gaps N667A | N667A | N667A N667A) above, with A630N, L642A counted along it

[1] = molecular target: T4, Rluc-ADGRG2-ΔGPS-β wildtype (mouse, UniProt Q8CJ12-3 38-995)
T4 construct: also called WT; ADGRG2-ΔGPS-β WT; source: HEK293, transfected, on cells; not shown: Rluc, N-terminal, kept
T4 sequence (Q8CJ12 other isoform, or with tags, fused parts or gaps mutant): as the sequence (Q8CJ12 other isoform, or with tags, fused parts or gaps N667A | N667A | N667A N667A) above, with A630N counted along it

Rluc-ADGRG2-ΔGPS-β N759A = molecular target: T5, Rluc-ADGRG2-ΔGPS-β N759A (mouse, UniProt Q8CJ12-3 38-995, N759A)
T5 construct: ADGRG2 (GPR64), mouse, ADGRG2-ΔGPS-β: the entire ECD removed; source: HEK293, transfected, on cells; not shown: Rluc, N-terminal, kept
T5 sequence (Q8CJ12 other isoform, or with tags, fused parts or gaps N759A | N759A | N759A N759A): as the sequence (Q8CJ12 other isoform, or with tags, fused parts or gaps N667A | N667A | N667A N667A) above, with A630N, N722A counted along it

Rluc-ADGRG2-ΔGPS-β V762A = molecular target: T6, Rluc-ADGRG2-ΔGPS-β V762A (mouse, UniProt Q8CJ12-3 38-995, V762A)
T6 construct: ADGRG2 (GPR64), mouse, ADGRG2-ΔGPS-β: the entire ECD removed; source: HEK293, transfected, on cells; not shown: Rluc, N-terminal, kept
T6 sequence (Q8CJ12 other isoform, or with tags, fused parts or gaps V762A | V762A | V762A V762A): as the sequence (Q8CJ12 other isoform, or with tags, fused parts or gaps N667A | N667A | N667A N667A) above, with A630N, V725A counted along it

Rluc-ADGRG2-ΔGPS-β Y765A = molecular target: T7, Rluc-ADGRG2-ΔGPS-β Y765A (mouse, UniProt Q8CJ12-3 38-995, Y765A)
T7 construct: ADGRG2 (GPR64), mouse, ADGRG2-ΔGPS-β: the entire ECD removed; source: HEK293, transfected, on cells; not shown: Rluc, N-terminal, kept
T7 sequence (Q8CJ12 other isoform, or with tags, fused parts or gaps Y765A | Y765A | Y765A Y765A): as the sequence (Q8CJ12 other isoform, or with tags, fused parts or gaps N667A | N667A | N667A N667A) above, with A630N, Y728A counted along it

Rluc-ADGRG2-ΔGPS-β V774A = molecular target: T8, Rluc-ADGRG2-ΔGPS-β V774A (mouse, UniProt Q8CJ12-3 38-995, V774A)
T8 construct: ADGRG2 (GPR64), mouse, ADGRG2-ΔGPS-β: the entire ECD removed; source: HEK293, transfected, on cells; not shown: Rluc, N-terminal, kept
T8 sequence (Q8CJ12 other isoform, or with tags, fused parts or gaps V774A | V774A | V774A V774A): as the sequence (Q8CJ12 other isoform, or with tags, fused parts or gaps N667A | N667A | N667A N667A) above, with A630N, V737A counted along it

Rluc-ADGRG2-ΔGPS-β T610A = molecular target: T9, Rluc-ADGRG2-ΔGPS-β T610A (mouse, UniProt Q8CJ12-3 38-995, T610A)
T9 construct: ADGRG2 (GPR64), mouse, ADGRG2-ΔGPS-β: the entire ECD removed; source: HEK293, transfected, on cells; not shown: Rluc, N-terminal, kept
T9 sequence (Q8CJ12 other isoform, or with tags, fused parts or gaps T610A | T610A | T610A T610A): as the sequence (Q8CJ12 other isoform, or with tags, fused parts or gaps N667A | N667A | N667A N667A) above, with T573A, A630N counted along it

Rluc-ADGRG2-ΔGPS-β F828A = molecular target: T10, Rluc-ADGRG2-ΔGPS-β F828A (mouse, UniProt Q8CJ12-3 38-995, F828A)
T10 construct: ADGRG2 (GPR64), mouse, ADGRG2-ΔGPS-β: the entire ECD removed; source: HEK293, transfected, on cells; not shown: Rluc, N-terminal, kept
T10 sequence (Q8CJ12 other isoform, or with tags, fused parts or gaps F828A | F828A | F828A F828A): as the sequence (Q8CJ12 other isoform, or with tags, fused parts or gaps N667A | N667A | N667A N667A) above, with A630N, F791A counted along it

Rluc-ADGRG2-ΔGPS-β V834A = molecular target: T11, Rluc-ADGRG2-ΔGPS-β V834A (mouse, UniProt Q8CJ12-3 38-995, V834A)
T11 construct: ADGRG2 (GPR64), mouse, ADGRG2-ΔGPS-β: the entire ECD removed; source: HEK293, transfected, on cells; not shown: Rluc, N-terminal, kept
T11 sequence (Q8CJ12 other isoform, or with tags, fused parts or gaps V834A | V834A | V834A V834A): as the sequence (Q8CJ12 other isoform, or with tags, fused parts or gaps N667A | N667A | N667A N667A) above, with A630N, V797A counted along it

Rluc-ADGRG2-ΔGPS-β V836A = molecular target: T12, Rluc-ADGRG2-ΔGPS-β V836A (mouse, UniProt Q8CJ12-3 38-995, V836A)
T12 construct: ADGRG2 (GPR64), mouse, ADGRG2-ΔGPS-β: the entire ECD removed; source: HEK293, transfected, on cells; not shown: Rluc, N-terminal, kept
T12 sequence (Q8CJ12 other isoform, or with tags, fused parts or gaps V836A | V836A | V836A V836A): as the sequence (Q8CJ12 other isoform, or with tags, fused parts or gaps N667A | N667A | N667A N667A) above, with A630N, V799A counted along it

Rluc-ADGRG2-ΔGPS-β F838A = molecular target: T13, Rluc-ADGRG2-ΔGPS-β F838A (mouse, UniProt Q8CJ12-3 38-995, F838A)
T13 construct: ADGRG2 (GPR64), mouse, ADGRG2-ΔGPS-β: the entire ECD removed; source: HEK293, transfected, on cells; not shown: Rluc, N-terminal, kept
T13 sequence (Q8CJ12 other isoform, or with tags, fused parts or gaps F838A | F838A | F838A F838A): as the sequence (Q8CJ12 other isoform, or with tags, fused parts or gaps N667A | N667A | N667A N667A) above, with A630N, F801A counted along it

Rluc-ADGRG2-ΔGPS-β C614A = molecular target: T14, Rluc-ADGRG2-ΔGPS-β C614A (mouse, UniProt Q8CJ12-3 38-995, C614A)
T14 construct: ADGRG2 (GPR64), mouse, ADGRG2-ΔGPS-β: the entire ECD removed; source: HEK293, transfected, on cells; not shown: Rluc, N-terminal, kept
T14 sequence (Q8CJ12 other isoform, or with tags, fused parts or gaps C614A | C614A | C614A C614A): as the sequence (Q8CJ12 other isoform, or with tags, fused parts or gaps N667A | N667A | N667A N667A) above, with C577A, A630N counted along it

Rluc-ADGRG2-ΔGPS-β S661A = molecular target: T15, Rluc-ADGRG2-ΔGPS-β S661A (mouse, UniProt Q8CJ12-3 38-995, S661A)
T15 construct: ADGRG2 (GPR64), mouse, ADGRG2-ΔGPS-β: the entire ECD removed; source: HEK293, transfected, on cells; not shown: Rluc, N-terminal, kept
T15 sequence (Q8CJ12 other isoform, or with tags, fused parts or gaps S661A | S661A | S661A S661A): as the sequence (Q8CJ12 other isoform, or with tags, fused parts or gaps N667A | N667A | N667A N667A) above, with S624A, A630N counted along it

Rluc-ADGRG2-ΔGPS-β W662A = molecular target: T16, Rluc-ADGRG2-ΔGPS-β W662A (mouse, UniProt Q8CJ12-3 38-995, W662A)
T16 construct: ADGRG2 (GPR64), mouse, ADGRG2-ΔGPS-β: the entire ECD removed; source: HEK293, transfected, on cells; not shown: Rluc, N-terminal, kept
T16 sequence (Q8CJ12 other isoform, or with tags, fused parts or gaps W662A | W662A | W662A W662A): as the sequence (Q8CJ12 other isoform, or with tags, fused parts or gaps N667A | N667A | N667A N667A) above, with W625A, A630N counted along it

Work on VS[Phe(4-Me)]GILLDLSRTSLP-{FITC′} [FITC-conjugated VPM-p15 (ADGRG2 Stachel peptide p15 T1V/F3Phe(4-Me))] yielded an EC50 (Rluc-ADGRG2-ΔGPS-β N667A) of 913 nM, an EC50 (Rluc-ADGRG2-ΔGPS-β F671A) of 880 nM and an EC50 (Rluc-ADGRG2-ΔGPS-β L679A) of 1160 nM. For the same binder, the EC50 [1] was 936 nM, the EC50 (Rluc-ADGRG2-ΔGPS-β N759A) was 1550 nM and the EC50 (Rluc-ADGRG2-ΔGPS-β V762A) was 1190 nM. The EC50 (Rluc-ADGRG2-ΔGPS-β Y765A) was 905 nM, the EC50 (Rluc-ADGRG2-ΔGPS-β V774A) was 1080 nM and the EC50 (Rluc-ADGRG2-ΔGPS-β T610A) was 1120 nM. For the same binder, the EC50 (Rluc-ADGRG2-ΔGPS-β F828A) was 1170 nM, the EC50 (Rluc-ADGRG2-ΔGPS-β V834A) was 1120 nM and the EC50 (Rluc-ADGRG2-ΔGPS-β V836A) was 1230 nM. The EC50 (Rluc-ADGRG2-ΔGPS-β F838A) was 767 nM, the EC50 (Rluc-ADGRG2-ΔGPS-β C614A) was 1290 nM and the EC50 (Rluc-ADGRG2-ΔGPS-β S661A) was 778 nM. For the same binder, the EC50 (Rluc-ADGRG2-ΔGPS-β W662A) was 1060 nM.
